Assay results from publication PMC7215387, “Comparison of Target Recognition by TRAF1 and TRAF2” (International Journal of Molecular Sciences, 2020).

Columns and labels:
TRAF2 [1] = biological target: T1, TRAF2 (Homo sapiens, UniProt Q12933); assay: Complex formation assay by gel-filtration (size-exclusion) chromatography with TRAF2; type: binding; conditions: Superdex 200 10/30, 20 mM Tris pH 8.0, 150 mM NaCl; 1 h at 4 °C; peak around 14 mL
T1 construct: TRAF2 TRAF domain (amino acid residues 305-501); 6xHis (C); made in house; host or cells: E. coli BL21 (DE3)
T1 sequence (Q12933 305-501): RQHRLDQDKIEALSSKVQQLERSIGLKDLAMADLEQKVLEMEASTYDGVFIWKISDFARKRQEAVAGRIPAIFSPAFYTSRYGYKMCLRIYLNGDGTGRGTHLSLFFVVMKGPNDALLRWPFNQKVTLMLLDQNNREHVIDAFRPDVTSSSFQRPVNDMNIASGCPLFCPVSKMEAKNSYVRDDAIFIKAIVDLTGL
Source text: TRADD is a well-known regulator of the TRAF function. The death domain located at the C-terminus of TRADD interacts with death-domain containing receptors and adaptor proteins including TNFR, receptor interacting protein 1 (RIP1) and Fas-associated death domain protein (FADD), while the N-terminal domain of TRADD (TRADD-N) interacts with the TRAF domain of TRAF2 (Figure 2a). Although several indirect interactions between TRAF1 and TRADD have been described, a direct interaction and direct analyses between TRAF1 and TRADD have not been reported. To directly study their interactions and binding properties, which may provide important clues for understanding TRAF-mediated signaling by TRADD, TRAFs and TRADD-N were purified, and initial interaction testing was performed by Native-PAGE. […] Although TRAF1 did interact with TRADD-N, this interaction was not as tight as with TRAF2 (Figure 2b). To further confirm this association, the interaction between the TRAFs and TRADD-N was further tested by size-exclusion chromatography. […]
Purified TRAF domains and TRADD-N proteins were mixed, incubated at 4 °C for 1 h, and concentrated to 4 to 5 mg/mL using a protein concentration kit (Millipore). […] Complex assembly was evaluated based on the positions of eluted protein peaks monitored at 280 nm followed by SDS-PAGE.

TRAF2 [2] = biological target: T1, TRAF2; assay: Surface plasmon resonance (SPR), TRAF2; type: binding; conditions: TRAF2 versus TRAF1
Description: The binding affinities between TRADD-N and TRAF1 or TRAF2 were further quantitatively analyzed using surface plasmon resonance (SPR) experiments (Figure 3a,b). For the SPR experiment, each purified 6xHis-tagged TRAF1 and TRAF2 was coupled to Ni-NTA sensor chips using a His-tag affinity system. Different concentrations of TRADD-N protein, from 0.39 to 3.125 μM, were analyzed for binding to TRAF1 or TRAF2. […] Given their interaction patterns and affinity differences in complex formation, we modeled the structure of the TRAF1:TRADD-N complex by docking TRADD-N to a previously solved TRAF1 structure based on the TRAF2:TRADD-N complex to better understand the affinity differences (Figure 3c,d). According to the previously determined structure of the TRAF2:TRADD-N complex, two distinct binding regions, Region I and II, were identified (Figure 3e). The specific residues from TRAF2 that contributed to the interaction in Region I were T401, H406, L471, and P474. The interaction-contributing residues on TRAF2 in Region II were D445, R448, P449, D450, S454 and G468. All residues in TRAF2 that participated in the interaction with TRADD-N were conserved in TRAF1, except for S454, which was replaced by alanine in TRAF1 (Figure 3f). The side chain of S454 in TRAF2 formed a stable hydrogen bond with the side chain of Q143 on TRADD-N and contributed to the stable interaction between these two proteins. […]

B1: TRADD-N: N-terminal domain of TRADD (TRADD-N, amino acid residues 1-163) (protein)
chain: MAAGQNGHEEWVGSAYLFVESSLDKVVLSDAYAHPQQKVAVYRALQAALAESGGSPDVLQMLKIHRSDPQLIVQLRFCGRQPCGRFLRAYREGALRAALQRSLAAALAQHSVPLQLELRAGAERLDALLADEERCLSCILAQQPDRLRDEELAELEDALRNLK
modifications: left off: His6 (from the vector pET24a), C-terminal, state not stated
- co-migration with TRAF2 in size-exclusion chromatography / SDS-PAGE (TRAF2 [1]): co-migrated well with TRADD-N at similar intensities
- affinity of TRAF2 for TRADD-N relative to that of TRAF1 (TRAF2 [2]): four times higher
